Experiments:
[1] = biological target: HLA-A*02:01; assay: IEDB peptide-MHC binding, purified MHC/direct/fluorescence; filed as Kd, often an IC50 or EC50 that approximates it; ≥ and ≤ were set here for values at or beyond the usual limits of such assays
[2] = biological target: HLA-A*69:01; assay: as above
[3] = biological target: HLA-C*08:02; assay: as above
[4] = biological target: HLA-A*02:01; assay: IEDB peptide-MHC binding, purified MHC/competitive/radioactivity; ≥ and ≤ were set here for values at or beyond the usual limits of such assays; details: source organism: Homo sapiens
[5] = biological target: HLA-A*02:06; assay: IEDB peptide-MHC binding, purified MHC/competitive/fluorescence; filed as Kd, often an IC50 or EC50 that approximates it; ≥ and ≤ were set here for values at or beyond the usual limits of such assays; details: source organism: Mycobacterium tuberculosis C
[6] = biological target: HLA-A*26:02; assay: as above; details: source organism: Mycobacterium tuberculosis C
[7] = biological target: HLA-A*68:02; assay: as above; details: source organism: Mycobacterium tuberculosis C
[8] = biological target: HLA-A*26:01; assay: as above; details: source organism: Mycobacterium tuberculosis C
[9] = biological target: HLA-B*18:01; assay: IEDB peptide-MHC binding, purified MHC/direct/fluorescence; filed as Kd, often an IC50 or EC50 that approximates it; ≥ and ≤ were set here for values at or beyond the usual limits of such assays
[10] = biological target: HLA-A*11:01; assay: as above
[11] = biological target: HLA-B*48:01; assay: as above
[12] = biological target: HLA-B*40:01; assay: as above
[13] = biological target: HLA-B*07:02; assay: as above; details: source organism: Mycobacterium tuberculosis
[14] = biological target: HLA-A*01:01; assay: as above
[15] = biological target: HLA-B*58:01; assay: as above
[16] = biological target: HLA-B*46:01; assay: as above
[17] = biological target: HLA-B*27:05; assay: as above
[18] = biological target: HLA-B*57:01; assay: as above
[19] = biological target: HLA-A*31:01; assay: as above
[20] = biological target: HLA-B*15:17; assay: as above
[21] = biological target: HLA-B*15:01; assay: as above
[22] = biological target: HLA-B*57:01; assay: IEDB peptide-MHC binding, purified MHC/competitive/radioactivity; filed as Kd, often an IC50 or EC50 that approximates it; ≥ and ≤ were set here for values at or beyond the usual limits of such assays; details: source organism: Homo sapiens
[23] = biological target: HLA-B*44:03; assay: as above; details: source organism: Homo sapiens
[24] = biological target: HLA-B*44:02; assay: as above; details: source organism: Homo sapiens
[25] = biological target: HLA-A*03:01; assay: IEDB peptide-MHC binding, purified MHC/direct/fluorescence; filed as Kd, often an IC50 or EC50 that approximates it; ≥ and ≤ were set here for values at or beyond the usual limits of such assays
[26] = biological target: HLA-C*12:03; assay: as above
[27] = biological target: HLA-A*01:01; assay: IEDB peptide-MHC binding, purified MHC/competitive/fluorescence; ≥ and ≤ were set here for values at or beyond the usual limits of such assays; details: source organism: Zaire ebolavirus
[28] = biological target: HLA-B*07:02; assay: IEDB peptide-MHC binding, purified MHC/competitive/fluorescence; filed as Kd, often an IC50 or EC50 that approximates it; ≥ and ≤ were set here for values at or beyond the usual limits of such assays; details: source organism: Bacillus anthracis str. A2012
[29] = biological target: HLA-B*51:01; assay: as above; details: source organism: Bacillus anthracis str. A2012
[30] = biological target: HLA-B*35:01; assay: as above; details: source organism: Bacillus anthracis str. A2012
[31] = biological target: HLA-A*11:01; assay: as above
[32] = biological target: HLA-B*46:01; assay: as above; details: source organism: Vibrio vulnificus YJ016
[33] = biological target: HLA-B*83:01; assay: as above; details: source organism: Vibrio vulnificus YJ016
[34] = biological target: HLA-C*04:01; assay: as above; details: source organism: Vibrio vulnificus YJ016
[35] = biological target: HLA-C*14:02; assay: as above; details: source organism: Vibrio vulnificus YJ016
[36] = biological target: HLA-B*15:42; assay: as above; details: source organism: Vibrio vulnificus YJ016
[37] = biological target: HLA-B*45:06; assay: as above; details: source organism: Vibrio vulnificus YJ016
[38] = biological target: HLA-C*06:02; assay: IEDB peptide-MHC binding, purified MHC/direct/fluorescence; filed as Kd, often an IC50 or EC50 that approximates it; ≥ and ≤ were set here for values at or beyond the usual limits of such assays; details: source organism: Vibrio vulnificus YJ016
[39] = biological target: HLA-B*35:01; assay: as above; details: source organism: Vibrio vulnificus YJ016
[40] = biological target: HLA-B*15:01; assay: IEDB peptide-MHC binding, purified MHC/competitive/fluorescence; filed as Kd, often an IC50 or EC50 that approximates it; ≥ and ≤ were set here for values at or beyond the usual limits of such assays; details: source organism: Vibrio parahaemolyticus K5030
[41] = biological target: HLA-B*08:02; assay: IEDB peptide-MHC binding, purified MHC/direct/fluorescence; filed as Kd, often an IC50 or EC50 that approximates it; ≥ and ≤ were set here for values at or beyond the usual limits of such assays; details: source organism: Vibrio parahaemolyticus RIMD 2210633
[42] = biological target: HLA-B*39:01; assay: as above; details: source organism: Vibrio parahaemolyticus RIMD 2210633
[43] = biological target: HLA-A*26:01; assay: as above; details: source organism: Vibrio parahaemolyticus RIMD 2210633
[44] = source organism: Camelpox virus M-96
[45] = source organism: Mycobacterium tuberculosis
[46] = source organism: Vibrio parahaemolyticus

With YLSSWTPVV the Kd [1, 44] was at most 1 nM, the Kd [2, 44] was 154 nM and the Kd ([3]; source organism: Variola virus) was 74 nM.

RQASLSISV was tested, and the IC50 [4] was 284 nM.

AVFPRYHPR gave a Kd [5] of 2100 nM, a Kd [6] of at least 20000 nM and a Kd [7] of 1910 nM. For the same sequence, the Kd [8] was 1670 nM, the Kd [9, 45] was at least 20000 nM and the Kd [10, 45] was 38 nM. It also gave a Kd [11, 45] of at least 20000 nM, a Kd [12, 45] of at least 20000 nM and a Kd [13] of at least 20000 nM. For the same sequence, the Kd [14, 45] was at least 20000 nM, the Kd [15, 45] was at least 20000 nM and the Kd [16, 45] was at least 20000 nM. It also gave a Kd [17, 45] of at least 20000 nM, a Kd [18, 45] of at least 20000 nM and a Kd [19, 45] of 4.7 nM. It also gave a Kd [20, 45] of at least 20000 nM, a Kd [21, 45] of at least 20000 nM and a Kd [2, 45] of at least 20000 nM.

In the case of YTAVVPLVY, the Kd [22] is reported as 208 nM, the Kd [23] is reported as 5540 nM and the Kd [24] is reported as 7780 nM. The Kd ([10]; source organism: Homo sapiens) was 2500 nM, the Kd ([14]; source organism: Homo sapiens) was 143 nM and the Kd ([15]; source organism: Homo sapiens) was 63.1 nM. For the same sequence, the Kd ([25]; source organism: Homo sapiens) was 4540 nM, the Kd ([26]; source organism: Homo sapiens) was 171 nM and the Kd ([21]; source organism: Homo sapiens) was 410 nM. For the same sequence, the Kd ([2]; source organism: Homo sapiens) was 1310 nM and the Kd ([3]; source organism: Homo sapiens) was at least 20000 nM.

GPFDAVLYY gave an IC50 [27] of at least 172000 nM.

Sequence YPIVIAPAM has a Kd [28] of 13.8 nM, a Kd [29] of 1010 nM and a Kd [30] of at most 0.1 nM.

In the case of LTESDMDYH, the IC50 [27] is reported as 41600 nM.

For SFGGFTFK, the Kd ([31]; source organism: Influenza A virus H3N2) was 44.8 nM.

For YTMELCGAM, the Kd [32] was 18 nM, the Kd [33] was at least 5000 nM and the Kd [34] was at least 5000 nM. It also gave a Kd [35] of at most 0.1 nM, a Kd [36] of at least 5000 nM and a Kd [37] of at least 5000 nM. The Kd [38] was at least 20000 nM, the Kd [39] was 28 nM and the Kd ([26]; source organism: Vibrio vulnificus YJ016) was 88 nM.

SCSRAIPQV showed an IC50 [4] of 1470 nM.

NSSYWRQGY gave a Kd ([31]; source organism: Vibrio parahaemolyticus K5030) of at least 20000 nM, a Kd [40] of at least 20000 nM and a Kd [9, 46] of at least 20000 nM. It also gave a Kd [41] of at least 20000 nM, a Kd [11, 46] of at least 20000 nM and a Kd [12, 46] of at least 20000 nM. For the same sequence, the Kd [14, 46] was 93 nM, the Kd [42] was at least 20000 nM and the Kd [15, 46] was at least 20000 nM. It also gave a Kd [16, 46] of at least 20000 nM, a Kd [25, 46] of at least 20000 nM and a Kd [17, 46] of at least 20000 nM. It also gave a Kd [18, 46] of at least 20000 nM, a Kd [19, 46] of at least 20000 nM and a Kd [20, 46] of 222 nM. For the same sequence, the Kd [43] was 160 nM, the Kd [1, 46] was at least 20000 nM and the Kd [2, 46] was at least 20000 nM.

Source: the Immune Epitope Database (IEDB)
